The target in one test is HLA-A*02:06. Description: IEDB peptide-MHC binding, purified MHC/competitive/radioactivity; filed as Kd, often an IC50 or EC50 that approximates it; ≥ and ≤ were set here for values at or beyond the usual limits of such assays.
In a further test the target is HLA-A*02:17. The test is described as above.
The next test concerns the target HLA-A*32:01. The test is described as above. To be noted: source organism: Dengue virus 3 Martinique/1243/1999.
Another test has as its target HLA-A*02:03. The test is described as above.
The next test addresses HLA-B*18:01. The description is as above.
The target of a further test is HLA-B*44:03. The test is described as above.
In another test the target is HLA-B*44:02. The description is as above.
The target in a further test is HLA-B*40:01. The description is as above.
Another test concerns the target HLA-B*45:01. Described as above.
A further test concerns the target HLA-B*40:02. The test is described as above.
For a further test, the target named is HLA-A*02:01. The test is described as above.
The next test deals with HLA-B*15:17. Briefly: IEDB peptide-MHC binding, purified MHC/direct/fluorescence; filed as Kd, often an IC50 or EC50 that approximates it; ≥ and ≤ were set here for values at or beyond the usual limits of such assays.
The target in the next test is HLA-B*57:01. The description is as above. Particulars: source organism: Yellow fever virus.
The target in another test is HLA-B*15:01. Briefly: IEDB peptide-MHC binding, purified MHC/competitive/radioactivity; filed as Kd, often an IC50 or EC50 that approximates it; ≥ and ≤ were set here for values at or beyond the usual limits of such assays. To be noted: source organism: Dengue virus 2 Peru/IQT2913/1996.
For a further test, the target named is HLA-B*08:01. Described as above. To be noted: source organism: Dengue virus 2 Peru/IQT2913/1996.
The mark [1] stands for this setting: source organism: Dengue virus 1 Brazil/97-11/1997.
The mark [2] stands for this setting: source organism: Dengue virus 4 Philippines/H241/1956.
Where [3] appears, read: source organism: Dengue virus 3 China/80-2/1980.
[4] abbreviates: source organism: Dengue virus 3 Martinique/1243/1999.
The mark [5] stands for this setting: source organism: Mammarenavirus machupoense.
Setting [6] is: source organism: Dengue virus 1 Singapore/S275/1990.
The mark [7] stands for this setting: source organism: Dengue virus 2 Jamaica/1409/1983.
Setting [8] is: source organism: Mammarenavirus choriomeningitidis.
[9] abbreviates: source organism: Mammarenavirus juninense.
[10] abbreviates: source organism: Dengue virus 3 Singapore/8120/1995.
[11] abbreviates: source organism: Dengue virus 2 Thailand/NGS-C/1944.
Setting [12] is: source organism: Mammarenavirus lassaense.
Where [13] appears, read: source organism: SARS coronavirus Tor2.

The record followed here is the Immune Epitope Database (IEDB).

With IILEFFLMV, the Kd with HLA-A*02:06 (setting [1]) is 0.00178 µM; with HLA-A*02:17 (setting [2]) it was 0.182 µM.

For the sequence SMINGVVKL, the Kd with HLA-A*32:01 is 1.49 µM; in the test with HLA-A*02:17 (setting [3]), 0.425 µM; with HLA-A*02:03 (setting [4]), 0.0184 µM.

As for SDHLISEML, the Kd with HLA-B*18:01 (setting [5]) is not below 77.5 µM; with HLA-B*44:03 (setting [5]) it was not below 31.7 µM; in the test with HLA-B*44:02 (setting [5]), 12.2 µM; with HLA-B*40:01 (setting [5]), not below 22.4 µM; with HLA-B*45:01 (setting [5]) it was 17.2 µM; with HLA-B*40:02 (setting [5]), 0.217 µM.

Turning to KEINLLSQT, the Kd was not below 77.5 µM with HLA-B*18:01 (setting [5]); 14.3 µM with HLA-B*44:03 (setting [5]); 17 µM with HLA-B*44:02 (setting [5]); not below 34.1 µM with HLA-B*40:01 (setting [5]); 6.69 µM with HLA-B*45:01 (setting [5]); 0.0311 µM in the test with HLA-B*40:02 (setting [5]).

As to SLSMTCIAV, the Kd with HLA-A*02:17 (setting [6]) was 0.0491 µM; with HLA-A*02:01 (setting [6]), 0.0134 µM; in the test with HLA-A*02:03 (setting [1]) it was 0.124 µM.

Regarding ALLLLVAHYA, the figures for the Kd with HLA-A*02:17 (setting [7]) and in the test with HLA-A*02:01 (setting [7]) were not below 70.4 µM and 1.33 µM, respectively.

Turning to KSFLVHREW, in the test with HLA-B*15:17 (source organism: West Nile virus), the Kd came to 0.0057 µM.

On to SMAMTCIAV, for which the Kd with HLA-A*02:17 (setting [2]) was determined as 0.074 µM; with HLA-A*02:01 (setting [2]) it was 0.0119 µM; in the test with HLA-A*02:03 (setting [2]), 0.00407 µM.

With PDFNSLISI, the Kd is not below 77.5 µM in the test with HLA-B*18:01 (setting [5]); not below 78.1 µM with HLA-B*44:03 (setting [5]); not below 26.6 µM with HLA-B*44:02 (setting [5]); 15.8 µM with HLA-B*40:01 (setting [5]); not below 77.7 µM in the test with HLA-B*45:01 (setting [5]); 0.813 µM in the test with HLA-B*40:02 (setting [5]).

LAVMGDAAW: the Kd is 0.027 µM in the test with HLA-B*15:17 (source organism: Yellow fever virus) and 0.0355 µM in the test with HLA-B*57:01.

Take FEDQFLPFMS: the Kd with HLA-B*18:01 (setting [8]) was 2.39 µM; with HLA-B*44:03 (setting [8]) it was not below 27.2 µM; with HLA-B*44:02 (setting [8]), 14.6 µM; with HLA-B*40:01 (setting [8]) it was 3.89 µM; with HLA-B*45:01 (setting [8]) it was 3.5 µM; in the test with HLA-B*40:02 (setting [8]), 0.312 µM.

Regarding PDVLRSDVY, the Kd in the test with HLA-B*18:01 (setting [9]) was 2.25 µM; in the test with HLA-B*44:03 (setting [9]) it was not below 78.1 µM; with HLA-B*44:02 (setting [9]), not below 48.5 µM; with HLA-B*40:01 (setting [9]) it was not below 76.1 µM; with HLA-B*45:01 (setting [9]), not below 77.7 µM; with HLA-B*40:02 (setting [9]), not below 77.2 µM.

KQLGQVMLLV: the equilibrium dissociation constant (Kd) stood at 0.00578 µM with HLA-A*02:06 (setting [4]), 0.172 µM with HLA-A*02:17 (setting [2]) and 0.0202 µM in the test with HLA-A*02:01 (setting [2]).

With TLTAAVLLLV, the Kd with HLA-A*02:17 (setting [10]) was found to be 0.219 µM; with HLA-A*02:03 (setting [10]), 0.00574 µM.

For the sequence LLLTIGLSLV, the Kd with HLA-A*02:06 (setting [1]) came out at 0.062 µM; with HLA-A*02:17 (setting [6]), 2.62 µM; with HLA-A*02:01 (setting [6]), 0.00391 µM; with HLA-A*02:03 (setting [1]) it was 0.0146 µM.

Consider LMMTTIGIVL, for which the Kd in the test with HLA-A*02:06 (source organism: Dengue virus 2 Peru/IQT2913/1996) was determined as 0.0308 µM; in the test with HLA-B*15:01 it was 0.0217 µM; with HLA-B*08:01 it was 5.9 µM; with HLA-A*02:17 (setting [11]) it was 1.19 µM; in the test with HLA-A*02:01 (setting [11]), 0.0289 µM.

On to REAYCQEFSL, for which the Kd turned out to be 11.3 µM in the test with HLA-B*18:01 (setting [12]); 2.79 µM with HLA-B*44:03 (setting [12]); 1.06 µM with HLA-B*44:02 (setting [12]); 9.78 µM in the test with HLA-B*40:01 (setting [12]); 1.54 µM with HLA-B*45:01 (setting [12]); 0.00134 µM in the test with HLA-B*40:02 (setting [12]).

For the sequence GEDTVWEVQG, the Kd is not below 70.5 µM in the test with HLA-B*18:01 (setting [13]); 16.3 µM with HLA-B*44:03 (setting [13]); not below 45 µM with HLA-B*44:02 (setting [13]); not below 29.3 µM in the test with HLA-B*40:01 (setting [13]); 4.03 µM in the test with HLA-B*45:01 (setting [13]); 18.4 µM in the test with HLA-B*40:02 (setting [13]).

In the case of KLEKASLIEV, the Kd with HLA-A*02:17 (setting [3]) came out at 1.14 µM.

For EEVVENPTI, the Kd with HLA-B*18:01 (setting [13]) was not below 45.6 µM; with HLA-B*44:03 (setting [13]), 0.778 µM; with HLA-B*44:02 (setting [13]), 4.54 µM; with HLA-B*40:01 (setting [13]), 2.73 µM; with HLA-B*45:01 (setting [13]), 1.22 µM; with HLA-B*40:02 (setting [13]) it was 4.88 µM.
